{"source": "paper PMC6194691", "origin": "cited, not measured here", "target": "transferrin receptor (Rattus norvegicus) (UniProt Q99376)", "sequence (Q99376 whole entry)": "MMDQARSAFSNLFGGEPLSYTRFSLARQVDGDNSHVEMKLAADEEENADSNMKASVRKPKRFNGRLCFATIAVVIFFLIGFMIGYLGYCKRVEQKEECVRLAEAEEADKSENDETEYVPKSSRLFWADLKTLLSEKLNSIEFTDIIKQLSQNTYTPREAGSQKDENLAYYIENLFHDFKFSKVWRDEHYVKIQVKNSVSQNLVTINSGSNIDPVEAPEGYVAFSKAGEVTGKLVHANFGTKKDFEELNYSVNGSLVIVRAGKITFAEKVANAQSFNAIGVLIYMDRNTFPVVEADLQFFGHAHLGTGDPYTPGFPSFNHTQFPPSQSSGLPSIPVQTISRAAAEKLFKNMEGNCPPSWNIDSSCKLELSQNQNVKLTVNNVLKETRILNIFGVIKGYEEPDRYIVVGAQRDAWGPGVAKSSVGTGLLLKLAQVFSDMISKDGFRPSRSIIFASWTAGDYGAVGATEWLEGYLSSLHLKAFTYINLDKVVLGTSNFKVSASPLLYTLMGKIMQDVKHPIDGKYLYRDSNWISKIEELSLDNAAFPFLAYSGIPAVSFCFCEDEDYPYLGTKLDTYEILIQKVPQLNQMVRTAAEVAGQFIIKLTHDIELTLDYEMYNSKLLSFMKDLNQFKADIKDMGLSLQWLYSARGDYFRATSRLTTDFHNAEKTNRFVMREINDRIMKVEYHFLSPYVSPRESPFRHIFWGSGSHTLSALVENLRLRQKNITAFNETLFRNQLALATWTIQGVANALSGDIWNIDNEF"}
{"substance": "apo-transferrin (from UniProt P12346)", "values": [{"measurement": "Kd", "result": "< 0.03", "unit": "µM"}]}
